Measured values from paper PMC9578707, “Identification of orphan ligand-receptor relationships using a cell-based CRISPRa enrichment screening platform” (eLife, 2022).
One block for each molecule: values may come before it.

Experiments:
[1] = target: RNF167-ECD (transmembrane PA-TM-RING E3 ligase RNF167, extracellular domain) (human) (UniProt Q9H6Y7); test: SPR; Biacore T100; biotinylated ligand captured on a streptavidin (SA) Series S chip (~100-200 RU); non-biotinylated analyte in twofold dilutions in HBS-P+; 60 s injection at 30 ul/min, 240 s dissociation; regeneration 2 x 10 sec 2M MgCl2; KD from the fit at equilibrium (steady state)
[2] = target: T1, PTPRU-ECD (receptor protein tyrosine phosphatase U, extracellular domain) (human, UniProt Q92729 19-749, biotin (BirA biotinylation; captured on streptavidin chip)); test: SPR; Biacore T100; biotinylated ligand captured on a streptavidin (SA) Series S chip (~100-200 RU); non-biotinylated analyte in twofold dilutions in HBS-P+; 60 s injection at 30 ul/min, 240 s dissociation; regeneration 2 x 10 sec 2M MgCl2; kinetic fit with a 1:1 binding (Langmuir) model; conditions: both partners purified
T1 construct: receptor-type protein tyrosine phosphatase U (PTPRU, R2B subfamily), human, extracellular domain; source: Expi293F, purified (Ni-NTA, SEC), biotinylated in vitro with BirA
T1 sequence (looked up): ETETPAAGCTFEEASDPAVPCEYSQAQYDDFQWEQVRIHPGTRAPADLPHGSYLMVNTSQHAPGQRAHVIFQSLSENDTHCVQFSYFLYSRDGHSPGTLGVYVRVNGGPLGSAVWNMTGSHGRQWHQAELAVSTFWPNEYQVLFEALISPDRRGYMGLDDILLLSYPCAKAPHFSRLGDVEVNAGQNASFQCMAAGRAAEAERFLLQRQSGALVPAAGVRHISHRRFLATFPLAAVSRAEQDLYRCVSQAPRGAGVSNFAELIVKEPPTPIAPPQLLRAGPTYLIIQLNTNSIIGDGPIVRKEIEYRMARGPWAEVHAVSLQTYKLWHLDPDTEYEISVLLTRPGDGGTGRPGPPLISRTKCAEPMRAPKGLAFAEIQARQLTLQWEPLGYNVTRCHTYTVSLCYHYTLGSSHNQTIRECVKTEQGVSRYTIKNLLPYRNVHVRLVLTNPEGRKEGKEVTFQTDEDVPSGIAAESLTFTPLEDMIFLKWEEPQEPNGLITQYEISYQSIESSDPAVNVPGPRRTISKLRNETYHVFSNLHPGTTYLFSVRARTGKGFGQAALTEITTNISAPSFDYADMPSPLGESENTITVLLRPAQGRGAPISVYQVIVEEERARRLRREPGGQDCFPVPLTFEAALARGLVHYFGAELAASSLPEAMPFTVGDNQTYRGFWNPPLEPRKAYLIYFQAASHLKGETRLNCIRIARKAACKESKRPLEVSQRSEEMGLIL

human PTPRU-ECD [3] = target: T2, human PTPRU-ECD (human, UniProt Q92729 19-749, biotin where captured on the streptavidin chip); test: SPR; Biacore T100; biotinylated receptor ECD or hit protein captured on a streptavidin chip (~100-200 RU), non-biotinylated secreted ligand as analyte in twofold dilutions; HBS-P+ buffer; 1:1 Langmuir model or equilibrium fit; conditions: both partners purified
T2 construct: PTPRU, human, extracellular domain; construct of the ECD is not described; source: Expi293F, purified (Ni-NTA, SEC)
T2 sequence (looked up): T1 sequence (looked up)

human PTPRU-ECD [4] = target: T3, human PTPRU-ECD (human, UniProt Q92729 19-749, biotin where captured on the streptavidin chip); test: SPR
T3 chain: T1 sequence (looked up)

[5] = target: T1, PTPRU-ECD (receptor protein tyrosine …); test: SPR; Biacore T100; biotinylated ligand captured on a streptavidin (SA) Series S chip (~100-200 RU); non-biotinylated analyte in twofold dilutions in HBS-P+; 60 s injection at 30 ul/min, 240 s dissociation; regeneration 2 x 10 sec 2M MgCl2; kinetic fit with a 1:1 binding (Langmuir) model; conditions: both partners purified; remark: listed apart in the source

B1: oligodendrocyte-myelin glycoprotein (OMG) (ligand, human, UniProt P23515 25-417, looked up)
chain: ICPLQCICTERHRHVDCSGRNLSTLPSGLQENIIHLNLSYNHFTDLHNQLTQYTNLRTLDISNNRLESLPAHLPRSLWNMSAANNNIKLLDKSDTAYQWNLKYLDVSKNMLEKVVLIKNTLRSLEVLNLSSNKLWTVPTNMPSKLHIVDLSNNSLTQILPGTLINLTNLTHLYLHNNKFTFIPDQSFDQLFQLQEITLYNNRWSCDHKQNITYLLKWMMETKAHVIGTPCSTQISSLKEHNMYPTPSGFTSSLFTVSGMQTVDTINSLSVVTQPKVTKIPKQYRTKETTFGATLSKDTTFTSTDKAFVPYPEDTSTETINSHEAAAATLTIHLQDGMVTNTSLTSSTKSSPTPMTLSITSGMPNNFSEMPQQSTTLNLWREETTTNVKTPLPS
notes: oligodendrocyte-myelin glycoprotein (OMG), human; source: Expi293F, purified (Ni-NTA, SEC), not biotinylated (SPR analyte)
- Kd [2]: 70.6 nM
- koff [2]: 0.000472 s⁻¹
- kon [2]: 6690 M⁻¹ s⁻¹

B3: Osteocrin (OSTN) (ligand, human, UniProt P61366 28-133, looked up)
chain: VDVTTTEAFDSGVIDVQSTPTVREEKSATDLTAKLLLLDELVSLENDVIETKKKRSFSGFGSPLDRLSAGSVDHKGKQRKVVDHPKRRFGIPMDRIGRNRLSNSRG
notes: Osteocrin (OSTN, Musclin), human; also called Musclin; source: Expi293F, purified (Ni-NTA, SEC), not biotinylated (SPR analyte)
- Kd [5]: 12.7 nM
- koff [5]: 0.00368 s⁻¹
- kon [5]: 290000 M⁻¹ s⁻¹

Continued, values first:

- Kd [1]: 314000 nM
Molecule: TAFA-2 (FAM19A2; chemokine-like family member 2) (from UniProt Q8N3H0 31-131) (ligand)

- Kd (human PTPRU-ECD [3]): ~12 nM
- koff (human PTPRU-ECD [4]): 0.0036 s⁻¹
B2: Osteocrin (ligand, human, UniProt P61366 28-133, looked up)
chain: B3 chain
modifications: biotin (biotinylated in vitro with BirA) where used on beads
notes: Osteocrin, human; also called OSTN; Musclin; source: Expi293F, purified (Ni-NTA, SEC); not shown: AviTag, C-terminal, kept
